# System: Escherichia coli TOP10
# Assay: shrunken log2 fold change of peptide-encoding DNA abundance (4.5 h post-induction vs induction); higher = less antimicrobial activity (less host growth inhibition)
# Settings: time post-induction: 4.5 h; library: site-saturation at positions 5, 18, 19, 20
# 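Note: peptides expressed intracellularly from a pBAD plasmid library in pooled LB shake-flask culture, induced with 0.3% L-arabinose, DNA abundance read by NGS, three biological replicates, DESeq2 with apeglm shrinkage.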
row,Sequence,shrunken log2 fold change
1,RRIRRRPPRLPRPRPRPAYNPRP,-0.28
2,RRIRCRPPRLPRPRPRPVPCPRP,0.177
3,RRIRIRPPRLPRPRPRPDMTPRP,-0.01
4,RRIRGRPPRLPRPRPRPNEAPRP,1.22
5,RRIRRRPPRLPRPRPRPTQVPRP,0.677
6,RRIRQRPPRLPRPRPRPACPPRP,0.0154
7,RRIRWRPPRLPRPRPRPFCQPRP,-0.0441
8,RRIRKRPPRLPRPRPRPRCYPRP,-0.181
9,RRIRHRPPRLPRPRPRPLKQPRP,-0.128
10,RRIRLRPPRLPRPRPRPIDQPRP,0.281
11,RRIRTRPPRLPRPRPRPMCCPRP,-0.182
12,RRIRERPPRLPRPRPRPAYFPRP,0.019
13,RRIRFRPPRLPRPRPRPLGVPRP,0.0349
14,RRIRPRPPRLPRPRPRPWGLPRP,0.253
15,RRIRIRPPRLPRPRPRPQFNPRP,-0.846
16,RRIRWRPPRLPRPRPRPINPPRP,-0.247
17,RRIRTRPPRLPRPRPRPQVCPRP,0.0443
18,RRIRFRPPRLPRPRPRPGHFPRP,-0.24
19,RRIRERPPRLPRPRPRPKRRPRP,0.143
20,RRIRMRPPRLPRPRPRPAFTPRP,0.251
21,RRIRERPPRLPRPRPRPYQKPRP,-0.0207
22,RRIRQRPPRLPRPRPRPPSQPRP,0.0863
23,RRIRVRPPRLPRPRPRPDECPRP,-0.00624
24,RRIRWRPPRLPRPRPRPRTNPRP,0.0699
25,RRIRQRPPRLPRPRPRPWRCPRP,-0.149

row,Sequence,shrunken log2 fold change
1,RRIRERPPRLPRPRPRPCNFPRP,-0.125
2,RRIRYRPPRLPRPRPRPSFEPRP,-0.689
3,RRIRFRPPRLPRPRPRPSYGPRP,-0.37
4,RRIRPRPPRLPRPRPRPQVKPRP,0.205
5,RRIRKRPPRLPRPRPRPQECPRP,-0.00957
6,RRIRRRPPRLPRPRPRPWTGPRP,-0.444
7,RRIRFRPPRLPRPRPRPADIPRP,0.131
8,RRIRERPPRLPRPRPRPCWEPRP,-0.0225
9,RRIRERPPRLPRPRPRPQEGPRP,0.0271
10,RRIRHRPPRLPRPRPRPPTPPRP,0.518
11,RRIRGRPPRLPRPRPRPVFIPRP,0.0618
12,RRIRARPPRLPRPRPRPRIFPRP,0.213
13,RRIRLRPPRLPRPRPRPIRPPRP,-0.113
14,RRIRYRPPRLPRPRPRPGFAPRP,-0.00507
15,RRIRCRPPRLPRPRPRPEQDPRP,-0.0796
16,RRIRCRPPRLPRPRPRPTRIPRP,0.258
17,RRIRERPPRLPRPRPRPIKFPRP,-0.0529
18,RRIRTRPPRLPRPRPRPGRLPRP,0.171
19,RRIRIRPPRLPRPRPRPCCAPRP,-0.172
20,RRIRQRPPRLPRPRPRPIGCPRP,0.0253
21,RRIRHRPPRLPRPRPRPTWKPRP,-0.011
22,RRIRFRPPRLPRPRPRPWNGPRP,0.228
23,RRIRCRPPRLPRPRPRPTDEPRP,2.52
24,RRIRLRPPRLPRPRPRPMSIPRP,-0.159
25,RRIRARPPRLPRPRPRPCCTPRP,0.485

row,Sequence,shrunken log2 fold change
1,RRIRQRPPRLPRPRPRPAPHPRP,0.343
2,RRIRDRPPRLPRPRPRPLWIPRP,-0.421
3,RRIRIRPPRLPRPRPRPGFRPRP,0.0935
4,RRIRVRPPRLPRPRPRPMVVPRP,-0.0329
5,RRIRTRPPRLPRPRPRPARVPRP,0.195
6,RRIRMRPPRLPRPRPRPHYTPRP,-0.399
7,RRIRIRPPRLPRPRPRPQPWPRP,0.102
8,RRIRVRPPRLPRPRPRPPEWPRP,-0.00654
9,RRIRKRPPRLPRPRPRPAKCPRP,0.174
10,RRIRMRPPRLPRPRPRPKIEPRP,0.367
11,RRIRSRPPRLPRPRPRPHQWPRP,-0.144
12,RRIRVRPPRLPRPRPRPGQNPRP,-0.104
13,RRIRGRPPRLPRPRPRPSRLPRP,0.204
14,RRIRNRPPRLPRPRPRPFIYPRP,-0.856
15,RRIRIRPPRLPRPRPRPQLTPRP,-0.28
16,RRIRKRPPRLPRPRPRPNCYPRP,-0.08
17,RRIRHRPPRLPRPRPRPCACPRP,-0.176
18,RRIRPRPPRLPRPRPRPHTGPRP,-0.0698
19,RRIRGRPPRLPRPRPRPCDMPRP,0.22
20,RRIRFRPPRLPRPRPRPPRSPRP,0.488
21,RRIRSRPPRLPRPRPRPYDQPRP,-0.21
22,RRIRFRPPRLPRPRPRPQDEPRP,-0.0187
23,RRIRARPPRLPRPRPRPDPMPRP,1.02
24,RRIRLRPPRLPRPRPRPWMYPRP,-0.0417
25,RRIRERPPRLPRPRPRPLDVPRP,-0.304

# Reference: the supplement of paper PMC9112550, “Optimization of the antimicrobial peptide Bac7 by deep mutational scanning” (BMC Biology, 2022)
